Measured values from the domain aggregation screens of Martell et al. (2025).

Assay: soluble fraction after stress (log2 fold change); higher = more stays soluble; pooled small domains, quantitative proteomics
Details: stress: 75 degC
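Further: 20 min heating vs room temperature control held 20 min.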

Sequence	soluble fraction (log2)
HMQSSTAISFNQFQKSWLSNNIKSFQLGEDKMTVRGSLKNGTQYETIVPSERLFQFIGQHPKDGQVQEMY	0.0453
HMQSTEQVSVTVTIPPGGELRIDSDTFRVLLNGENVLDKQSGDWLMLSRDLLYLDIESAIGNGLSGNLIYT	0.486
HMQSVEELLDAIGDERLLHILLEADRKTLQIVVLKMMGYAPKEIGSHIGMPEQTVYTKLRRLREKIKKI	-1.65
HMQSYHVGDKVTIKNSASHWATGQSIYNGVKGHTYKIIQTNGHKLLLDQVISWINDGDVYKAGS	-0.497
HMQSYSTIIGVIELRLSGIGYRTTKARYGIGNSTVTLIMNRFKETGFTLDDLKTMEPTKVEALFYPP	-1.36
HMQSYSYYDFQKALQNKTVESVIIEPDKTVPTGTLQIQLKGDTKEELNVSDVTEVEELLQSYDVDYKLRSV	0.0732
HMQTASVRFADGQLEVKQKGLQRVSVYSLNGMTVANKAVQGQDYVTISLPRAAYIVKITTQNGSFTKVI	-2.18
HMQTGRREALEAQLRETGGEAMLARLREIDPEAAARLHPADEKRVIRALEVYEETGKTITQHNLETKAVPP	0.309
HMQTKEVDYGTFMSMIDEKNIGTVEIGDSQIVFTDKDNKNLYETGVMNDPDLAQRLHDAGATFSS	0.128
HMQTLQTTSLRVSENQLFILDQQALPQEKRWLAADNVALLVDHIHTLRVRGAPLIGLSASLLLALLAGRLT	0.0717
HMQTMNKTNISNFEKYLNSGDVSEVIVVRNKSSVRVTLTPEALRSSEHQAVVGKNILGQENIKGPHYQFEV	-0.0414
HMQTPPGRYRHYKGGLYEVIATARHSETLEPMTVYRALYGEQGLWVRPAAMFAEDITLEGVRQPRFARI	-2.39
HMQTRIDISDAVLQWVVRKTQFAALPPKAAAHLTKWVRGEKKPTFNQLEEVSKATGIPLGYFFLQQPPHE	-2.19
HMQTTEDMEINAKVDEYLREMYLWNDEYKTLNLDHNKGYEDFFYDALGSMTTNTLDKKTYVGSDGKTYYNL	-0.205
HMQTYTYYIAKNDISIGQKITPDMLIEKQVNLGDSKDRYLSREQLETGKYIAVRQIPAGELISSASANE	0.102
HMQVAPQVERLLRVMGNETLSLSDIMGRMGLSDKKNFRESYLVPALRSAVIEMTIPDKPNSSLQKYRRIHE	-0.634
HMQVEEKNKKIELYIEGKIKELESNLMYVPNENKKKLLMAFMNRNEDIEIIKTKIDTIFNKSVAAYKENM	-0.302
HMQVIDNHWRPSRDALDILLRDGISEHFIEDAIPEFILYWRERGTQDSNWNSRFLQHIRLQWARYTNAV	-1.67
HMQVPDLYRTLGVGRDATTEAIEAAYVGWQARLSAGEPISTQEWERLRYAHEVLSNPQRRSLYDSLVAET	-0.0937
HMQVPVNVSMEILDWVIAHIKIDALPNQIREYLNLWVNGEKEPTFNQVEKVSKATGIPLGYFFLQTPPIED	-1.79
HMQVQHVWNRLKRPNGDVLYEINRDHPLVSASLDAAADRGAIETLLRQIEQSLPVNQLYVDMNADEHFE	-0.602
HMQVSDAAQLAEVVKTVLAENPAAVGDYRKGKKAAIGFLLGQVMRHMRGTANPAVARQLLEQALEDE	-0.076
HMQVSDLSAIDSLIDKVLSEQQAAVQDFRSGQGKAMGFLIGKVMQASDGKANPKVIRELMGKKLA	0.0534
HMQVSIGERVKLARMSAGLNQRQLGKEMGMSAMAISKYETGEVVPNSRVLIQLSQTLHVPLDFFFRS	-3.04
HMQVTDADFDQIRLAVLSQLKQNSLTVAELLKIIPFKEQKVMPVIRFLIDNRVLEHGTDMKLTVGNSVK	-0.223
HMQVTIGADLAEHAARLDVQISDVVKLIKSGVSEGEIKVGLTKLETRLAHPELALVENKLAYLKALIAES	-2.27

Sequence	soluble fraction (log2)
HMQYALEDDLDSAIKLLTGKGLSGTVAWGWSDTYINVGKKSYSMEFIAKMLLRLGEGSRVTIQVDPA	-4.62
HMQYIINFEYSGMLLREYLRGVLGLSHGTLTALKKDPLGILLNGEHATVRAVLHAGDRLTLALE	-3.51
HMQYKVMDVTVDGNPVIEFQNLNSKIKWIENNPDAIIQNIKTSSFEADQKRIVGTSRGPFWIVIKPDF	-0.424
HMQYRQRRGLERMELILDAATRVVAEVGYERTTTNAIATRAGISPGSLYQYFSSKEDIASALWERYAE	-0.0812
HMRAGEAVTGQVIGVKEDEIILSIAGSKSEGIITRSEFTNEPNVDLTTKVSVGDELEVKVLKVNDGEGMAS	-0.317
HMRAKPLILLDGREISAEELFSLDKNSIKSIEVLKDETALAQYGEKAKNGVVLVVTKSAAAS	0.00789
HMRALPAGQADLLKWIDGVTPRSVEELELLSGLEPGRLSELLMELELAGIVRAVAGDSYIKISKS	-0.649
HMRAPETEITYTEFKTALRAGQIETATVGIEQISGKLTDGDLYRTVRVDDPDLLKDLEANHVNAAGRV	0.0537
HMRASQGRNELILSLLRGHELSILELLEGLEKQGVRVARPTLTKDLNELVSRGSVEATAPPRSKNRTYRIP	-0.986
HMRDFLMDSTKNKLSKDQVQLSRIFLWFGNDFGSKAERLEFISRYSGMDFNQPKIDYLTYDWSLNQ	0.286
HMRDLITYVVQINGKLRGKLEVAPDTDPEELKALALEVENVKRSLEGWVVKKVIVVPGKMVSIAAG	-1.77
HMRDLLPHFQRELQFLQTHRNEFAAAYPELGGRLATASDLLDDPHVERMVQSFALLAARVHKRLDDDF	0.121
HMRDLTARQQQILALIRQHIADTGFPPTRAEIAAQLGFRSPNAAEEHLKALARKGVIELASGASRGIRLK	-0.86
HMRDPFDALSARERAVASLVQRGLRNKEVASELGLTEGTVKVHLHKVFDKLGIRGRTELILLAQER	-1.35
HMRDQAIDIYKTVHSVAEPYKEVFLLRVLGELSFKEISHIFGKSESWAKVTFFRAKIKVVEKREES	-3.97
HMRDQQHNIYLLEKAKRLYEEFLGDNRHIIAAEMARFEAVLETQDAIIIQRAQQQFSEFLNRFDG	-2.12
HMRDRYEYLKELRLYLSPLGRTEEDRVIEYYAELIGDKIESGIPENGVLSQLGTPRELADKILAETQEY	-0.377
HMRDSLVGLEGVVVREVDDETLAGKVQIGSMEWSARSESGRIPAGRRVVVLRAEGVHIVVKEV	-0.407
HMRDSWNEATKEKRYTEAYDALNSALKKTPATPHALSDALWIARELGRTNEEVQRLEWRLYALLTWIS	0.241
HMRDTDAEVTYKLNEPFKTMGSVSVEGKVLEFAGSKWFARAAEFASNTEVYPLAKNRVRLTFTFHGLTAP	0.146
HMREEFIGVLDGKVAIFHGRPERKGPLKEVTAIEVDKLPRQEQADLEKGLVIRTDKEKLQLMEGLAALLD	0.683
HMREELIALYRAIARLSEDEQELLNLFYFARRPLSEIAQLTGMTPGAAKTRLYRARRHLRREMEEDGYG	-1.07
HMREGLRHLRVRMPGGAGETLAMLYREGEVLSQSSDGAFIEVEIRVAQSVAGRLLQMPGVQLTEEVG	-0.941
HMREGNELLGKEGVTVSELRPAGIALIDGRRTDVVTDGEFVAVDQAVEVVEVSGNRVVVRRS	0.305
HMREIDIWVAEDADSQRIDKYLSMVVEDLSRSRIASLIEGGSILVNGEVIRAKYKVKPADHITAAFEDEM	-1.27
HMREIKSNEILLEVENLKNSEFFNDINFNIKKGEIVGFSGLIGAGRTELALTLFGYYKAESGKVIQ	0.101

Sequence	soluble fraction (log2)
HMREIRIIAEEGHGRLDAFLAGREELGLSRSRIKGLIEEGQVTLNGAVPKAKQPVSPGDEIVVSVPD	0.192
HMREKMKGKILDYNFQESRGIISADDGNRYSFENSQWKGTQSPKVNQIVDFEIDGQNAKDIYLDK	0.0796
HMRESLSEAERHPRYLEGEDVVRMFLLMGDLSRVEAEVIALQWNAQEADRVGLPQDAKVFRTRAR	-0.523
HMREVDKRYYKINIAGTDRIFTNVYRVGDRYSAYEADKNGKPGKFLYSLSQAEIDRAVISGSFDFK	-0.225
HMREVSPEDLALMRRIDAWHLEHPFAGARLLRDLLRPEGFQAGRRHIGTLMARMGIEALYRK	-0.383
HMREYVGLSPFNKEKTPSFYVNDEKGQFFDFSSGKNGDLITFLQETERLTFMEAVERLAAEAGLPMPA	-0.742
HMRFANGHLIWDTIIELRNAERRINRRALADLTGLKPGVVDDHVERWIEKDQLRRAGNGELEVV	-1.36
HMRFMRVSQSKSKNSTSLYIIESVYTKDNKHTTRIVKKLGTVEELSKEHEDPLAWAKEVAKQMTEEAEQN	-0.569
HMRFNIGNVIEHYKLNTEDLAKVLFPTVKYPKQAFDRVLKGEANLDVIQLERLANHIGVLVTDLF	-1.18
HMRFQGKISDWNDEKGYGFVEPNGGGTRAFVHIKSFTDLPRRPINGDIIIYETTTDEKNRVQANNISFTR	-0.194
HMRFSYLNIETRKDISSLINKSEITHSSYNNNEYLYKIKSKKTDDFKDLISLIDEKDLISYSIDS	-1.14
HMRFTVSDKMDMLLKSLSAGQSMPFKSLFASASTKSEVIVTFLALLELMKLNQFVVWQDQILGEIEIERR	-0.751
HMRGDQLREHLLWTAKDVFLELGFERASMDAVAARAETSKRSLYAHFESKEKLFLAVIDLVRG	-3.54
HMRGESFSTLVSILQEMSARKAAQVLNGLSEGLAVEVLRALPSDVAGDILGRMDAAKAAALMEQLST	-0.46
HMRGGLATLTPRERQVLALMAEGRSNAGIAAELVVSGGAVEKHVASIFTKLGLPPDESDNRRVLAVLRHLG	-1.74
HMRGHASVEIKRIVYKYKLTDQELAKITGMKASDFPIYHDHLQLILPKRYWARVLDALQNYEKEHES	-4.04
HMRGINDLSLVDPQGRIRKDGEQYVVAFGRHKGKEISQIISQDPSYLNWLLSPKGIEDDATRELIRTQYS	-0.206
HMRGPTIELLIQKSALYEELDDSENALKEILKAFDRDSLNSDVLNRLVNLLLNDKQIDRAENYNQLLIEK	-0.17
HMRGPVRLDLPVSGLSRSSGPALAKILQAVPGVHKAHVNVRSGKATLEYDPARAKVTDFVEVIRSAGFGT	-0.272
HMRGQGRILAMLKIQPEIATKDLAYLLGIRQQSLNELLKKLEKNSYVERRPSEKDRRVMVVHLTEKGKE	-0.782
HMRGQLADLWLPREQARRAAEIVAARPVPLGSVKTWIARGKLAPRKTGTGPALYRVGALVSLLAKS	-2.14
HMRGVNEISYTTLISEVSGGNVRDVVISGDEITGTFNDGSRFHSFSPDDPQFIERLNDQGVIINVKPL	0.168
HMRHDSEGYYRLIGVPPDADDAELKEAAKKRLMEAHPDHGGSEDEFVEVYRAYRTLTDPSARAEYDARP	0.28
HMRHEDLSPAQKAAALVVAVGSENAAQVLRHLSEEEVEILAGEVARLGEVDPDVVDSVMREVYEQMMGH	-0.642
